{"source": "patent US11402384B2", "about": "(Duke University, priority 2015, dated 2022)", "molecules": {"B1": {"name": "Q64C Acrylodan: tsGBP2_C64 (SEQ ID NO: 23) Acrylodan conjugate (conjugate)", "chain": "MKLEIFSWWAGDEGPALEALIRLYKQKYPGVEVINATVTGGAGVNAKAVLKTRMLGGDPPDTFCVHAGQELIGTWVVADRMEDLTSLFRQEGWLQAFPKGLIDLLSYKGGIWSVPVNIHRSNVMWYIPAKLKEWGVTPPKTWAEFLATAQTLKRKGLEAPLALGENWTQQHLWESVALATLGADGWNNLWSGKLKFTDPKAVAVWETFGKVLDAANKDAAGLSWQQAVDRVVQGKAAFNIMGDWAAGYMSTTLKLKPGTDFAWTPSPGTSGIFMMLSDSFGLPKGAKNRQNAINWLKLVGSKEGQDTFNPLKGSIAARLDSDPAKYNAYGQSAMKDWKSNRIVGSLVHGAVAPESFMSQFGTVMEIFLQSRNPQAAANAAQAIANQVGLGRGGSHHHHHH", "modifications": "Acrylodan conjugate; tsGBP2_C64 (64C substitution mutant with signal peptide replaced with M and a GGSHHHHHH at C-terminus)"}, "B2": {"name": "H66C Acrylodan: tsGBP2_C66 (SEQ ID NO: 24) Acrylodan conjugate (conjugate)", "chain": "B1 chain with C64Q, H66C", "modifications": "Acrylodan conjugate; tsGBP2_C66 (66C substitution mutant with signal peptide replaced with M and a GGSHHHHHH at C-terminus)"}, "B3": {"name": "S223C Acrylodan: tsGBP2_C223 (SEQ ID NO: 27) Acrylodan conjugate (conjugate)", "chain": "B1 chain with C64Q, S223C", "modifications": "Acrylodan conjugate; tsGBP2_C223 (223C substitution mutant with signal peptide replaced with M and a GGSHHHHHH at C-terminus)"}, "B4": {"name": "W167C Acrylodan: tsGBP2_C167 (SEQ ID NO: 26) Acrylodan conjugate (conjugate)", "chain": "B1 chain with C64Q, W167C", "modifications": "Acrylodan conjugate; tsGBP2_C167 (167C substitution mutant with signal peptide replaced with M and a GGSHHHHHH at C-terminus)"}, "B5": {"name": "H119C Acrylodan: tsGBP2_C119 (SEQ ID NO: 25) Acrylodan conjugate (conjugate)", "chain": "B1 chain with C64Q, H119C", "modifications": "Acrylodan conjugate; tsGBP2_C119 (119C substitution mutant with signal peptide replaced with M and a GGSHHHHHH at C-terminus)"}, "B6": {"name": "W224C Acrylodan: tsGBP2_C224 (SEQ ID NO: 28) Acrylodan conjugate (conjugate)", "chain": "B1 chain with C64Q, W224C", "modifications": "Acrylodan conjugate; tsGBP2_C224 (224C substitution mutant with signal peptide replaced with M and a GGSHHHHHH at C-terminus)"}, "B7": {"name": "S277C Acrylodan: tsGBP2_C277 (SEQ ID NO: 31) Acrylodan conjugate (conjugate)", "chain": "B1 chain with C64Q, S277C", "modifications": "Acrylodan conjugate; tsGBP2_C277 (cysteine substitution mutant with signal peptide replaced with M and a GGSHHHHHH at C-terminus)"}, "B8": {"name": "Q225C Acrylodan: tsGBP2_C225 (SEQ ID NO: 29) Acrylodan conjugate (conjugate)", "chain": "B1 chain with C64Q, Q225C", "modifications": "Acrylodan conjugate; tsGBP2_C225 (225C substitution mutant with signal peptide replaced with M and a GGSHHHHHH at C-terminus)"}, "B9": {"name": "A42C Badan: tsGBP2_C42 (SEQ ID NO: 22) Badan conjugate (conjugate)", "chain": "B1 chain with A42C, C64Q", "modifications": "Badan conjugate; tsGBP2_C42 (42C substitution mutant with signal peptide replaced with M and a GGSHHHHHH at C-terminus)"}, "B10": {"name": "S223C Badan: tsGBP2_C223 (SEQ ID NO: 27) Badan conjugate (conjugate)", "chain": "B1 chain with C64Q, S223C", "modifications": "Badan conjugate; tsGBP2_C223 (223C substitution mutant with signal peptide replaced with M and a GGSHHHHHH at C-terminus)"}, "B11": {"name": "Q225C Badan: tsGBP2_C225 (SEQ ID NO: 29) Badan conjugate (conjugate)", "chain": "B1 chain with C64Q, Q225C", "modifications": "Badan conjugate; tsGBP2_C225 (225C substitution mutant with signal peptide replaced with M and a GGSHHHHHH at C-terminus)"}, "B12": {"name": "W244C Badan: tsGBP2_C244 (SEQ ID NO: 30) Badan conjugate (conjugate)", "chain": "B1 chain with C64Q, W244C", "modifications": "Badan conjugate; tsGBP2_C244 (244C substitution mutant with signal peptide replaced with M and a GGSHHHHHH at C-terminus)"}, "B13": {"name": "S277C Badan: tsGBP2_C277 (SEQ ID NO: 31) Badan conjugate (conjugate)", "chain": "B1 chain with C64Q, S277C", "modifications": "Badan conjugate; tsGBP2_C277 (cysteine substitution mutant with signal peptide replaced with M and a GGSHHHHHH at C-terminus)"}, "B14": {"name": "H119C Badan: tsGBP2_C119 (SEQ ID NO: 25) Badan conjugate (conjugate)", "chain": "B1 chain with C64Q, H119C", "modifications": "Badan conjugate; tsGBP2_C119 (119C substitution mutant with signal peptide replaced with M and a GGSHHHHHH at C-terminus)"}, "B15": {"name": "Q64C Badan: tsGBP2_C64 (SEQ ID NO: 23) Badan conjugate (conjugate)", "chain": "B1 chain", "modifications": "Badan conjugate; tsGBP2_C64 (64C substitution mutant with signal peptide replaced with M and a GGSHHHHHH at C-terminus)"}, "B16": {"name": "W224C Badan: tsGBP2_C224 (SEQ ID NO: 28) Badan conjugate (conjugate)", "chain": "B1 chain with C64Q, W224C", "modifications": "Badan conjugate; tsGBP2_C224 (224C substitution mutant with signal peptide replaced with M and a GGSHHHHHH at C-terminus)"}, "B17": {"name": "H66C Badan: tsGBP2_C66 (SEQ ID NO: 24) Badan conjugate (conjugate)", "chain": "B1 chain with C64Q, H66C", "modifications": "Badan conjugate; tsGBP2_C66 (66C substitution mutant with signal peptide replaced with M and a GGSHHHHHH at C-terminus)"}, "B18": {"name": "W167C Badan: tsGBP2_C167 (SEQ ID NO: 26) Badan conjugate (conjugate)", "chain": "B1 chain with C64Q, W167C", "modifications": "Badan conjugate; tsGBP2_C167 (167C substitution mutant with signal peptide replaced with M and a GGSHHHHHH at C-terminus)"}}, "note": "Residue numbers refer to the chain shown, from its start. Names may count otherwise.", "data": [{"assay": "Ratiometric fluorescence glucose titration of fluorescent conjugates", "type": "binding", "design": "key to Shape (fluorescence response to glucose) / Change (fluorescence response to glucose): m, monochromatic; d, dichromatic (i.e. spectral shape change); 0, no change", "details": "tsGBP2 cysteine scan, Acrylodan conjugate", "excerpt": "(§1) Semi-synthetic FRSs can be engineered by site-specifically attaching thiol-reactive, environmentally sensitive fluorophores that respond to ligand-mediated conformational changes. Identification of FRS candidates that can be used for sensing applications comprises three steps: • 1. Cysteine scan. Mutant glucose-binding proteins containing single cysteines are constructed for site-specific attachment of thiol-reactive fluorophores. […] Candidate positions fall into three classes: endosteric, replacing a residue that contacts the ligand directly; peristeric, located at the rim of the binding site; allosteric (Marvin et al., 1997, Proc Natl Acad Sci USA, 94, 4366-71; Marvin, 1998, J Am Chem Soc, 120, 7-11), located outside the binding site at sites that undergo local structural changes in concert with the hinge-bending motion. • 2. Fluorophore screening. Thiol-reactive, environmentally sensitive fluorophores are attached to each cysteine mutant prepared in step 1. • 3. Evaluation of the glucose-mediated change of all the fluorescent conjugates prepared in step 2. Responses to ligand binding in which there is both a change in fluorescence emission intensity and spectral shape are essential for chemometric applications, because such changes enable ratiometric measurements. Changes in spectral shape typically are accompanied by a shift in the wavelength of the emission intensity maxima. Three classes of fluorescent responses are possible: • i. No response. • ii. Monochromatic response (emission intensity increases or decreases without a change in spectral shape) • iii.\n(§2) Determination of temperature- and ligand-dependent fluorescence landscapes. […] Temperatures were advanced in 1K steps.\n(§3) Determination of emission intensity spectra.\n(§4) 2 For a single glucose-binding site, the fractional saturation is given by […]", "values": [{"molecule": "B1", "Shape (fluorescence response to glucose)": 0}, {"molecule": "B2", "Shape (fluorescence response to glucose)": "d"}, {"molecule": "B3", "Shape (fluorescence response to glucose)": 0}, {"molecule": "B4", "Shape (fluorescence response to glucose)": "d"}, {"molecule": "B5", "Shape (fluorescence response to glucose)": "m"}, {"molecule": "B6", "Shape (fluorescence response to glucose)": "m"}, {"molecule": "B7", "Shape (fluorescence response to glucose)": 0}, {"molecule": "B8", "Shape (fluorescence response to glucose)": "m"}]}, {"assay": "Ratiometric fluorescence glucose titration of fluorescent conjugates", "type": "binding", "design": "key to Shape (fluorescence response to glucose) / Change (fluorescence response to glucose): m, monochromatic; d, dichromatic (i.e. spectral shape change); 0, no change", "details": "tsGBP2 cysteine scan, Acrylodan conjugate; ratiometric fit at λ1 and λ2; read-out: Kd ^appKd", "excerpt": "as §1, §2, §3, §4", "units": {"Kd": "µM"}, "values": [{"molecule": "B4", "Kd": 20}, {"molecule": "B5", "Kd": 20}, {"molecule": "B6", "Kd": 700}]}, {"assay": "Ratiometric fluorescence glucose titration of fluorescent conjugates", "type": "binding", "design": "key to Shape (fluorescence response to glucose) / Change (fluorescence response to glucose): m, monochromatic; d, dichromatic (i.e. spectral shape change); 0, no change", "details": "tsGBP2 cysteine scan, Acrylodan conjugate; ratiometric fit at λ1 and λ2; read-out: Kd ^trueKd", "excerpt": "as §1, §2, §3, §4", "units": {"Kd": "µM"}, "values": [{"molecule": "B4", "Kd": 20}, {"molecule": "B5", "Kd": 20}, {"molecule": "B6", "Kd": 900}]}, {"assay": "Ratiometric fluorescence glucose titration of fluorescent conjugates", "type": "binding", "design": "key to Shape (fluorescence response to glucose) / Change (fluorescence response to glucose): m, monochromatic; d, dichromatic (i.e. spectral shape change); 0, no change", "details": "tsGBP2 cysteine scan, Badan conjugate", "excerpt": "as §1, §2, §3, §4", "values": [{"molecule": "B9", "Shape (fluorescence response to glucose)": "m"}, {"molecule": "B10", "Shape (fluorescence response to glucose)": "m"}, {"molecule": "B11", "Shape (fluorescence response to glucose)": "m"}, {"molecule": "B12", "Shape (fluorescence response to glucose)": "m"}, {"molecule": "B13", "Shape (fluorescence response to glucose)": 0}, {"molecule": "B14", "Shape (fluorescence response to glucose)": "m"}, {"molecule": "B15", "Shape (fluorescence response to glucose)": "m"}, {"molecule": "B16", "Shape (fluorescence response to glucose)": 0}, {"molecule": "B17", "Shape (fluorescence response to glucose)": "m"}, {"molecule": "B18", "Shape (fluorescence response to glucose)": "m"}]}]}
